Where no end group is shown, it is not given here. [ ]: non-standard residue; d: D form. Aib = CC(C)(N)C(=O)O
Columns and labels:
[1] = target: human GLP-1 receptor (GLP-1R) (human, UniProt P43220 24-463); assay: cell-based or functional assay
[2] = target: human glucagon receptor (GCGR) (human, UniProt P47871 26-477); assay: cell-based or functional assay

human GLP-1 receptor (GLP-1R), sequence (P43220 24-463): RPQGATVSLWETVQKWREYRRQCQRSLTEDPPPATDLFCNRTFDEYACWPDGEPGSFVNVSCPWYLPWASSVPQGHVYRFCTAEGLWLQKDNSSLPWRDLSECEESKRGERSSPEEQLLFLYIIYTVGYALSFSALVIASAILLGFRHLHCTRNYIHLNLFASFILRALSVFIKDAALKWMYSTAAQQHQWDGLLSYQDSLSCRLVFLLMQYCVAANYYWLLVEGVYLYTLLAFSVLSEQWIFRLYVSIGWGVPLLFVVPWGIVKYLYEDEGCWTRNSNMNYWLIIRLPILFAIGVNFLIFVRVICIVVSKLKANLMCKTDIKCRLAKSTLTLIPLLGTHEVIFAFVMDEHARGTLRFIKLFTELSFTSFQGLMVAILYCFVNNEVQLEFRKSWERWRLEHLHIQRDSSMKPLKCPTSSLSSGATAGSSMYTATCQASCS

Binder | hGLP1 pEC50 (cAMP) [1] | hGCGR pEC50 (cAMP) [2]
YSHGTFTSDYSKYLD[Aib]KAAQEFV[Aib]WLEDEPSSGAPPPS-OH (N-terminus assumed; SMILES CC(C)C[C@H](NC(=O)[C@H](Cc1ccc(O)cc1)NC(=O)[C@H](CCCCN)NC(=O)[C@H](CO)NC(=O)[C@H](Cc1ccc(O)cc1)NC(=O)[C@H](CC(=O)O)NC(=O)[C@H](CO)NC(=O)[C@@H](NC(=O)[C@H](Cc1ccccc1)NC(=O)[C@@H](NC(=O)CNC(=O)[C@H](Cc1c[nH]cn1)NC(=O)[C@H](CO)NC(=O)[C@@H](N)Cc1ccc(O)cc1)[C@@H](C)O)[C@@H](C)O)C(=O)N[C@@H](CC(=O)O)C(=O)NC(C)(C)C(=O)N[C@@H](CCCCN)C(=O)N[C@@H](C)C(=O)N[C@@H](C)C(=O)N[C@@H](CCC(N)=O)C(=O)N[C@@H](CCC(=O)O)C(=O)N[C@@H](Cc1ccccc1)C(=O)N[C@H](C(=O)NC(C)(C)C(=O)N[C@@H](Cc1c[nH]c2ccccc12)C(=O)N[C@@H](CC(C)C)C(=O)N[C@@H](CCC(=O)O)C(=O)N[C@@H](CC(=O)O)C(=O)N[C@@H](CCC(=O)O)C(=O)N1CCC[C@H]1C(=O)N[C@@H](CO)C(=O)N[C@@H](CO)C(=O)NCC(=O)N[C@@H](C)C(=O)N1CCC[C@H]1C(=O)N1CCC[C@H]1C(=O)N1CCC[C@H]1C(=O)N[C@@H](CO)C(=O)O)C(C)C) [Compound A76] | < 9 pEC50 | 12.7 pEC50
YSHGTFTSDYSKYLD[Aib]KTAQEFV[Aib]WLEDEPSSGAPPPS-OH (N-terminus assumed; SMILES CC(C)C[C@H](NC(=O)[C@H](Cc1ccc(O)cc1)NC(=O)[C@H](CCCCN)NC(=O)[C@H](CO)NC(=O)[C@H](Cc1ccc(O)cc1)NC(=O)[C@H](CC(=O)O)NC(=O)[C@H](CO)NC(=O)[C@@H](NC(=O)[C@H](Cc1ccccc1)NC(=O)[C@@H](NC(=O)CNC(=O)[C@H](Cc1c[nH]cn1)NC(=O)[C@H](CO)NC(=O)[C@@H](N)Cc1ccc(O)cc1)[C@@H](C)O)[C@@H](C)O)C(=O)N[C@@H](CC(=O)O)C(=O)NC(C)(C)C(=O)N[C@@H](CCCCN)C(=O)N[C@H](C(=O)N[C@@H](C)C(=O)N[C@@H](CCC(N)=O)C(=O)N[C@@H](CCC(=O)O)C(=O)N[C@@H](Cc1ccccc1)C(=O)N[C@H](C(=O)NC(C)(C)C(=O)N[C@@H](Cc1c[nH]c2ccccc12)C(=O)N[C@@H](CC(C)C)C(=O)N[C@@H](CCC(=O)O)C(=O)N[C@@H](CC(=O)O)C(=O)N[C@@H](CCC(=O)O)C(=O)N1CCC[C@H]1C(=O)N[C@@H](CO)C(=O)N[C@@H](CO)C(=O)NCC(=O)N[C@@H](C)C(=O)N1CCC[C@H]1C(=O)N1CCC[C@H]1C(=O)N1CCC[C@H]1C(=O)N[C@@H](CO)C(=O)O)C(C)C)[C@@H](C)O) [Compound A77] | < 9 pEC50 | 11.5 pEC50
YSHGTFTSDYSKYLD[Aib]KLAQEFV[Aib]WLEDEPSSGAPPPS-OH (N-terminus assumed; SMILES CC(C)C[C@H](NC(=O)[C@H](CCCCN)NC(=O)C(C)(C)NC(=O)[C@H](CC(=O)O)NC(=O)[C@H](CC(C)C)NC(=O)[C@H](Cc1ccc(O)cc1)NC(=O)[C@H](CCCCN)NC(=O)[C@H](CO)NC(=O)[C@H](Cc1ccc(O)cc1)NC(=O)[C@H](CC(=O)O)NC(=O)[C@H](CO)NC(=O)[C@@H](NC(=O)[C@H](Cc1ccccc1)NC(=O)[C@@H](NC(=O)CNC(=O)[C@H](Cc1c[nH]cn1)NC(=O)[C@H](CO)NC(=O)[C@@H](N)Cc1ccc(O)cc1)[C@@H](C)O)[C@@H](C)O)C(=O)N[C@@H](C)C(=O)N[C@@H](CCC(N)=O)C(=O)N[C@@H](CCC(=O)O)C(=O)N[C@@H](Cc1ccccc1)C(=O)N[C@H](C(=O)NC(C)(C)C(=O)N[C@@H](Cc1c[nH]c2ccccc12)C(=O)N[C@@H](CC(C)C)C(=O)N[C@@H](CCC(=O)O)C(=O)N[C@@H](CC(=O)O)C(=O)N[C@@H](CCC(=O)O)C(=O)N1CCC[C@H]1C(=O)N[C@@H](CO)C(=O)N[C@@H](CO)C(=O)NCC(=O)N[C@@H](C)C(=O)N1CCC[C@H]1C(=O)N1CCC[C@H]1C(=O)N1CCC[C@H]1C(=O)N[C@@H](CO)C(=O)O)C(C)C) [Compound A78] | < 9 pEC50 | 10.8 pEC50

Reference: patent US20180009871A1 (INTARCIA THERAPEUTICS, published 2018)
